{"source": "paper PMC2872656", "molecular_target": "Pyrococcus abyssi PAB1135 protein (trypsin-treated) (Pyrococcus abyssi) (UniProt Q9UXX8)", "test": "SEC; trypsin-treated PAB1135 on Superdex 75 XK 16/60; 50 mM Tris-HCl pH 8.0, 150 mM NaCl, 0.5 mM EDTA; apparent mass against mass markers"}
{"substance": "Pyrococcus abyssi PAB1135 protein (trypsin-treated) (from UniProt Q9UXX8 1-154) (natural protein)", "values": [{"measurement": "stoichiometry N", "value": 2}]}
